From the RNAGym collection of RNA variant scans (doi:10.1093/nar/gkz1192)

B1: CPEB3 Ribozyme (parent)
chain: UAACAGGGGGCCACAGCAGAAGCGUUCACGUCGCAGCCCCUGUCAGAUUCUGGUGAAUCUGCGAAUUCUGCUGUAUAUCUC

Variants of: B1
Experiment: self-cleavage, relative activity (ratio to wild type); higher = more cleavage; in vitro, sequencing
How it was run: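 Libraries of CPEB3 self-cleaving ribozyme mutants came from rounds of error-prone PCR and carried barcodes, which DNA sequencing matched to variants. In vitro transcription used T7 RNA polymerase at 37°C for 5 hours, with a further 15 min in DNase I before EDTA stopped the reaction; the ribozymes cleaved during both steps. The RNA was reverse transcribed with template switching and sequenced on Illumina. Relative activity is the cleaved/total read fraction of a variant divided by that of the unmutated ribozyme, averaged over three batches with at least 5 reads.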

Variant	self-cleavage
U60C C68G	0.31
U60C C68A	0.32
U60A A64G	0.43
U60A A64C	0.13
U60A A64U	0.33
C59G U74A	0.37
C62A U78A	0.16
C62A U78C	0.16
C59U C62U	0.16
C59A C68A	0.19
U60A U72G	0.61
U60A U72C	0.64
U60A U72A	0.54
U60A U69A	0.33
U60A U69C	0.34
U60A U69G	0.25
G61A U78C	0.62
U58C U60C	0.3
U58C U60G	0.24
U58C U60A	0.26
U60G A77U	0.38
U60G A77G	0.47
C59A A77G	0.31
U60C U76A	0.58

Variant	self-cleavage
U60C U76C	0.51
U60C U76G	0.51
G61U U74C	1.19
U60C C62A	0.19
U60C C62U	0.33
C59A U67A	0.26
C59A U67C	0.16
G61A A65G	0.39
U58C U78C	0.47
U58C U78G	0.44
U58C U78A	0.47
U60C U74G	0.66
U60C U74C	0.79
U60C U74A	0.96
C62A A64G	0.25
U58C G70A	0.37
C62G U80A	0.25
U60C C79A	0.93
U60C C79U	0.72
U60C C79G	0.81
U58C U66G	0.23
U58C U66C	0.28
U60C U66C	0.29
U60C U66A	0.33

Variant	self-cleavage
U60C U66G	0.15
U60A U74C	1.04
U60A U74G	0.91
U60A U74A	0.75
U60C G61U	0.26
U60C G61C	0.29
C62A	0.31
C62U	0.2
C62G	0.3
U58C G73A	1.24
U60A U76C	0.56
U60A U76A	0.61
G61U G70A	0.31
U60G U66C	0.15
U60G U66G	0.24
G61A U74C	1.12
C62A U74A	0.18
C62A U74C	0.4
C59U G73A	1.45
C59G U76A	0.47
C59A A75G	0.16
C59A A75U	0.13
C59U A75G	0.81
U60C A77U	0.55

Variant	self-cleavage
U60C A77G	0.51
C62G A77U	0.19
U58C U80G	0.67
U58C U80C	0.57
U58C U80A	0.91
U60G A64U	0.21
U60G A64G	0.42
U58C C71U	0.41
U58C C71A	0.37
G61C C62U	0.22
U60C A75G	0.37
U60C A75C	0.72
U60C A75U	0.57
U60C U67C	0.35
U60C U67A	0.3
U60C U67G	0.2
C59A U60C	0.19
C59A U60A	0.31
C59A U74G	0.74
C59A U74C	0.5
U60G C62A	0.34
C62U A75C	0.44
C62U A75G	0.22
G61C U72C	0.34

Variant	self-cleavage
C62U A64U	0.29
C62U A64G	0.19
G61A C62U	0.17
U60A C71A	0.39
U60A C71G	0.35
U60A C71U	0.48
U60A C68G	0.43
C59G C71A	0.24
U58C C81U	0.68
U58C C81A	0.75
U58C C81G	0.82
G61A G73A	1.21
U60C G63C	0.54
U60C G63A	0.57
U60C G63U	0.58
C62A U67A	0.32
G61U U72G	0.53
G61U U72C	0.72
U58G U80C	0.27
G61A U66C	0.39
G61U U80C	0.65
U58G G70A	0.19
U58C G63U	0.91
U58C G63A	0.51

Variant	self-cleavage
U58C G63C	0.54
U60C G73C	0.9
U60C G73A	1.09
U60G G70A	0.21
U58G U72A	0.24
U58G U72C	0.28
U58G U72G	0.44
C59G U69C	0.2
G61A C79A	1.16
U60C U78A	0.55
U60C U78C	0.45
U58G	0.34
C59U U69A	0.41
C59U U69C	0.48
U58C C68A	0.2
G61C A64G	0.19
G61C A64U	0.32
C62G U76C	0.29
C62G A64C	0.19
C62G A64U	0.32
C62G A64G	0.22
C59A U80G	0.33
C59A U80C	0.38
C59U	0.95

Variant	self-cleavage
C59G	0.32
C59A	0.37
C59U A65G	0.4
G61U U76A	0.39
U58C U72C	0.59
U58C U72A	0.39
U58C U72G	0.55
C59A U72A	0.13
C59A U72C	0.34
C62A U66A	0.48
C62A U66C	0.25
U58G U76A	0.51
C59U U60C	0.34
C59U U60A	0.28
U60G U72A	0.22
U60G U72C	0.32
U60G U72G	0.28
G61U A64U	0.23
C62G C79A	0.24
C59A U78C	0.38
C59A U78A	0.22
U58G A64U	0.17
U58C U69G	0.15
